Assay [1] deals with T1, FcγRIIIa extracellular domain with C-terminal His tag (human, UniProt P08637 17-208).
T1 construct: extracellular domain; also called FcgRIIIa; 3a; not shown: His tag attached to the C terminus
The assay can be described thus: SPR (Biacore), antibody captured on antigen peptide chip, FcγR as analyte; bound amount against control heterodimerized antibody. As for the experimental part: (§1) Analysis of interaction between objective antibody and the FcγR was carried out using Biacore T100 (GE Healthcare). HBS-EP+ (GE Healthcare) was used as the running buffer, and the measurement temperature was set to 25° C. Chips produced by immobilizing the antigen peptide by the amine coupling method to a Series S Sencor Chip CM5 (GE Healthcare), or alternatively, chips produced by allowing preliminarily biotinylated antigen peptides to interact with and immobilize onto a Series S Sensor Chip SA (certified) (GE Healthcare) were used. Antibodies of interest were captured onto an antigen peptide-immobilized chip, and allowed to interact to each FcγR diluted with running buffer. To regenerate and repeatedly use the chip, the antibodies captured on the chip were washed off by reacting 10 mM glycine-HCl, pH 1.5.
(§2) The FcγR-binding activity of each antibody was assessed primarily using as an indicator the FcγR-binding activity and dissociation constant for FcγR.
For orientation: Surface plasmon resonance follows binding to a sensor surface in real time, without labels.

Assay [2] addresses T2, FcγRIIb extracellular domain with C-terminal His tag (human, UniProt P31994 43-217).
T2 construct: extracellular domain; Expressed in FreeStyle293 cells and used as the analyte in Biacore; also called FcgRIIb; 2b; not shown: His tag attached to the C terminus
T2 sequence (looked up): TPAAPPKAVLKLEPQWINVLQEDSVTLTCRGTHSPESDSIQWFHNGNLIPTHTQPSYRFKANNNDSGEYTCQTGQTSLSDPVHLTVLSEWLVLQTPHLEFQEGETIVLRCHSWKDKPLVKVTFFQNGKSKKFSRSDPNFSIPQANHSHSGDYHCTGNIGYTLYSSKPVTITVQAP
The description is as above. As for the experimental part: as §1, §2

Assay [3] concerns the target T1, FcγRIIIa extracellular domain with …. The assay can be described thus: SPR (Biacore); relative FcγRIIIa binding divided by relative FcγRIIb binding of the same antibody. As for the experimental part: as §1, §2
Assay [4] addresses T3, FcγRIIa R (human FcγRIIa, allotype R, Arg at position 131), extracellular domain with C-terminal His tag (human, UniProt P12318 34-217).
T3 construct: extracellular domain; expressed in FreeStyle293 cells; analyte in Biacore; also called 2aR; FcgRIIa R
T3 sequence (looked up): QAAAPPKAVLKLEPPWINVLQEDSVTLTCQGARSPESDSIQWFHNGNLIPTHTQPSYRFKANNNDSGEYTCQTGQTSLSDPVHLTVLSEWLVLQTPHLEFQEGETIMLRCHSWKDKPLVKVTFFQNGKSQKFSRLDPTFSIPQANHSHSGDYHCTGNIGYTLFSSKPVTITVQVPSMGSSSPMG
The assay can be described thus: SPR (Biacore), relative binding vs GpH7-A5/GpH7-B3/GpL16-k0.

15 molecules from patent US20180155451A1 (published 2018) can be followed below.

T1 sequence (P08637 17-208): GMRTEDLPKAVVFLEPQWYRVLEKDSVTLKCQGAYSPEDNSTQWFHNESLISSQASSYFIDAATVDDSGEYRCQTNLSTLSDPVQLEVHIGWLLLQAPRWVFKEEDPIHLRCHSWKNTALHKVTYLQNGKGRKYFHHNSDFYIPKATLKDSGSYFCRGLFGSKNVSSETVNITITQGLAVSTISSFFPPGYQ

B1: GpH7-A5/GpH7-B3 variant S267_14T/GpL16-k0 (He Ab) (antibody, human IgG1, kappa)
heavy 1: not shown
heavy 2: not shown
light: DIVMTQSPLSLPVTPGEPASISCQASESLVHSNRNTYLHWYLQKPGQSPQLLIYKVSNRFSGVPDRFSGSGSGTDFTLKISRVEAEDVGVYYCSQNTHVPPTFGQGTKVEIERTVAAPSVFIFPPSDEQLKSGTASVVCLLNNFYPREAKVQWKVDNALQSGNSQESVTEQDSKDSTYSLSSTLTLSKADYEKHKVYACEVTHQGLSSPVTKSFNRGEC
notes: Anti-glypican-3 heterodimerized IgG1 antibody; the mutation stands in only one H chain (the GpH7-B3 chain); also called S267T in one H chain
Regarding B1, the “He/Con_3a (IIIa binding)” value in assay [1] is 45.6 relative binding activity, GpH7-A5/GpH7-B3/GpL16-k0 = 100. The “He/Con_2b (IIb binding)” value in assay [2] is 104 relative binding activity, GpH7-A5/GpH7-B3/GpL16-k0 = 100. In addition, the “He_3a/2b (IIIa/IIb)” value in assay [3] was 0.44 ratio of He/Con_3a to He/Con_2b.

B2: GpH7-A5/GpH7-B3 variant P238_19Q/GpL16-k0 (antibody, human IgG1, kappa)
heavy 1: not shown
heavy 2: not shown
light: B1 light
notes: heterodimerized antibody, mutation in one H chain only; also called He Ab
For B2, the He/Con_2aR in assay [4] is 104 relative, control = 100.

B3: GpH7-A5/GpH7-B3 variant S267_19Q/GpL16-k0 (He Ab) (antibody, human IgG1, kappa)
heavy 1: not shown
heavy 2: not shown
light: B1 light
notes: Anti-glypican-3 heterodimerized IgG1 antibody; the mutation stands in only one H chain (the GpH7-B3 chain); also called S267Q in one H chain
Turning to B3, the “He/Con_3a (IIIa binding)” value in assay [1] is 65 relative binding activity, GpH7-A5/GpH7-B3/GpL16-k0 = 100. Moreover, the “He/Con_2b (IIb binding)” value in assay [2] is 218 relative binding activity, GpH7-A5/GpH7-B3/GpL16-k0 = 100. Moreover, the “He_3a/2b (IIIa/IIb)” value in assay [3] was 0.3 ratio of He/Con_3a to He/Con_2b.

B4: GpH7-A5/GpH7-B3 variant P238_10E/GpL16-k0 (antibody, human IgG1, kappa)
heavy 1: not shown
heavy 2: not shown
light: B1 light
notes: as for B2
On to B4, for which the He/Con_2aR in assay [4] is 151 relative, control = 100.

B5: GpH7-A5/GpH7-B3 variant P271_10E/GpL16-k0 (antibody, human IgG1, kappa)
heavy 1: not shown
heavy 2: not shown
light: B1 light
notes: as for B2
For the molecule B5, the He/Con_2aR in assay [4] was 103 relative, control = 100.

B6: GpH7-A5/GpH7-B3 variant H268_18N/GpL16-k0 (He Ab) (antibody, human IgG1, kappa)
heavy 1: not shown
heavy 2: not shown
light: B1 light
notes: Anti-glypican-3 heterodimerized IgG1 antibody; the mutation stands in only one H chain (the GpH7-B3 chain); also called H268N in one H chain
Consider B6, for which the “He/Con_3a (IIIa binding)” value in assay [1] was 104 relative binding activity, GpH7-A5/GpH7-B3/GpL16-k0 = 100. In addition, the “He/Con_2b (IIb binding)” value in assay [2] was 156 relative binding activity, GpH7-A5/GpH7-B3/GpL16-k0 = 100. In addition, the “He_3a/2b (IIIa/IIb)” value in assay [3] was 0.67 ratio of He/Con_3a to He/Con_2b.

B7: GpH7-A5/GpH7-B3 variant P238_16H/GpL16-k0 (antibody, human IgG1, kappa)
heavy 1: not shown
heavy 2: not shown
light: B1 light
notes: as for B2
With B7, the He/Con_2aR in assay [4] is 122 relative, control = 100.

B8: GpH7-A5/GpH7-B3 variant P238_15Y/GpL16-k0 (antibody, human IgG1, kappa)
heavy 1: not shown
heavy 2: not shown
light: B1 light
notes: as for B2
In the case of B8, the He/Con_2aR in assay [4] is 156 relative, control = 100.

B9: GpH7-A5/GpH7-B3 variant H268_20W/GpL16-k0 (He Ab) (antibody, human IgG1, kappa)
heavy 1: not shown
heavy 2: not shown
light: B1 light
notes: Anti-glypican-3 heterodimerized IgG1 antibody; the mutation stands in only one H chain (the GpH7-B3 chain); also called H268W in one H chain
Regarding B9, in assay [1], the “He/Con_3a (IIIa binding)” value was 82.8 relative binding activity, GpH7-A5/GpH7-B3/GpL16-k0 = 100. Also, in assay [2], the “He/Con_2b (IIb binding)” value is 111 relative binding activity, GpH7-A5/GpH7-B3/GpL16-k0 = 100. The “He_3a/2b (IIIa/IIb)” value in assay [3] is 0.74 ratio of He/Con_3a to He/Con_2b.

B10: GpH7-A5/GpH7-B3 variant P271_01G/GpL16-k0 (He Ab) (antibody, human IgG1, kappa)
heavy 1: not shown
heavy 2: not shown
light: B1 light
notes: Anti-glypican-3 heterodimerized IgG1 antibody; the mutation stands in only one H chain (the GpH7-B3 chain); also called P271G in one H chain
B10: the “He/Con_3a (IIIa binding)” value in assay [1] was 113 relative binding activity, GpH7-A5/GpH7-B3/GpL16-k0 = 100. Moreover, in assay [2], the “He/Con_2b (IIb binding)” value was 193 relative binding activity, GpH7-A5/GpH7-B3/GpL16-k0 = 100. Also, the “He_3a/2b (IIIa/IIb)” value in assay [3] was 0.59 ratio of He/Con_3a to He/Con_2b.

B11: GpH7-A5/GpH7-B3 variant P271_08L/GpL16-k0 (He Ab) (antibody, human IgG1, kappa)
heavy 1: not shown
heavy 2: not shown
light: B1 light
notes: Anti-glypican-3 heterodimerized IgG1 antibody; the mutation stands in only one H chain (the GpH7-B3 chain); also called P271L in one H chain
B11: the “He/Con_3a (IIIa binding)” value in assay [1] was 71 relative binding activity, GpH7-A5/GpH7-B3/GpL16-k0 = 100. The “He/Con_2b (IIb binding)” value in assay [2] was 103 relative binding activity, GpH7-A5/GpH7-B3/GpL16-k0 = 100. Moreover, in assay [3], the “He_3a/2b (IIIa/IIb)” value was 0.69 ratio of He/Con_3a to He/Con_2b.

B12: GpH7-A5/GpH7-B3 variant S267_15Y/GpL16-k0 (He Ab) (antibody, human IgG1, kappa)
heavy 1: not shown
heavy 2: not shown
light: B1 light
notes: Anti-glypican-3 heterodimerized IgG1 antibody; the mutation stands in only one H chain (the GpH7-B3 chain); also called S267Y in one H chain
Consider B12, for which the “He/Con_3a (IIIa binding)” value in assay [1] was 11.8 relative binding activity, GpH7-A5/GpH7-B3/GpL16-k0 = 100. Besides, the “He/Con_2b (IIb binding)” value in assay [2] was 37.9 relative binding activity, GpH7-A5/GpH7-B3/GpL16-k0 = 100. Moreover, the “He_3a/2b (IIIa/IIb)” value in assay [3] was 0.31 ratio of He/Con_3a to He/Con_2b.

B13: GpH7-A5/GpH7-B3 variant S267_16H/GpL16-k0 (He Ab) (antibody, human IgG1, kappa)
heavy 1: not shown
heavy 2: not shown
light: B1 light
notes: Anti-glypican-3 heterodimerized IgG1 antibody; the mutation stands in only one H chain (the GpH7-B3 chain); also called S267H in one H chain
In the case of B13, in assay [1], the “He/Con_3a (IIIa binding)” value is 17.9 relative binding activity, GpH7-A5/GpH7-B3/GpL16-k0 = 100. In addition, the “He/Con_2b (IIb binding)” value in assay [2] was 65.9 relative binding activity, GpH7-A5/GpH7-B3/GpL16-k0 = 100. In addition, the “He_3a/2b (IIIa/IIb)” value in assay [3] was 0.27 ratio of He/Con_3a to He/Con_2b.

B14: GpH7-A5/GpH7-B3 variant H268_01G/GpL16-k0 (He Ab) (antibody, human IgG1, kappa)
heavy 1: not shown
heavy 2: not shown
light: B1 light
notes: Anti-glypican-3 heterodimerized IgG1 antibody; the mutation stands in only one H chain (the GpH7-B3 chain); also called H268G in one H chain
Consider B14, for which, in assay [1], the “He/Con_3a (IIIa binding)” value was 96.7 relative binding activity, GpH7-A5/GpH7-B3/GpL16-k0 = 100. The “He/Con_2b (IIb binding)” value in assay [2] is 144 relative binding activity, GpH7-A5/GpH7-B3/GpL16-k0 = 100. The “He_3a/2b (IIIa/IIb)” value in assay [3] was 0.67 ratio of He/Con_3a to He/Con_2b.

B15: GpH7-A5/GpH7-B3 variant S267_06M/GpL16-k0 (antibody, human IgG1, kappa)
heavy 1: not shown
heavy 2: not shown
light: B1 light
notes: as for B2
As for B15, in assay [4], the He/Con_2aR was 122 relative, control = 100.
